From article PMC5679713 (Structure (London, England : 1993), 2017)
Where no end group is shown, it is not given here. Me3 = trimethyl-lysine

Tests used:
PPS-PHD = PPS-PHD (Drosophila melanogaster, UniProt Q9VG78); assay: 1H,15N HSQC NMR titration, PPS-PHD; assay type: binding; details: pH 6.9, H3 peptide residues 1-12, 298K
[1] = molecular target: PHD finger of Drosophila PPS (PPS-PHD), wild type, as used in NMR and fluorescence (Drosophila); assay: NMR titration
[2] = molecular target: PHD finger of Drosophila PPS (PPS-PHD), wild type, as used in NMR and fluorescence (Drosophila); assay: other fluorescence titration
[3] = molecular target: PHD finger of Drosophila PPS (PPS-PHD), wild type, as used in NMR and fluorescence (Drosophila); assay: other fluorescence titration; remark: listed apart in the source
[4] = molecular target: PHD finger of Drosophila PPS (PPS-PHD), wild type, as used in NMR and fluorescence (Drosophila); assay: other fluorescence titration; remark: listed apart in the source
[5] = molecular target: T1, PHD finger of yeast Bye1 (Bye1-PHD), aa 47-134 (S. cerevisiae, UniProt P36106 47-134); assay: other fluorescence titration
T1 sequence (looked up): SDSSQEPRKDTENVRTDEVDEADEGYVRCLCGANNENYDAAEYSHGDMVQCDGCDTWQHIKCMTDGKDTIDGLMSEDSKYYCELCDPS

PPS-PHD, sequence (Q9VG78 1-2016): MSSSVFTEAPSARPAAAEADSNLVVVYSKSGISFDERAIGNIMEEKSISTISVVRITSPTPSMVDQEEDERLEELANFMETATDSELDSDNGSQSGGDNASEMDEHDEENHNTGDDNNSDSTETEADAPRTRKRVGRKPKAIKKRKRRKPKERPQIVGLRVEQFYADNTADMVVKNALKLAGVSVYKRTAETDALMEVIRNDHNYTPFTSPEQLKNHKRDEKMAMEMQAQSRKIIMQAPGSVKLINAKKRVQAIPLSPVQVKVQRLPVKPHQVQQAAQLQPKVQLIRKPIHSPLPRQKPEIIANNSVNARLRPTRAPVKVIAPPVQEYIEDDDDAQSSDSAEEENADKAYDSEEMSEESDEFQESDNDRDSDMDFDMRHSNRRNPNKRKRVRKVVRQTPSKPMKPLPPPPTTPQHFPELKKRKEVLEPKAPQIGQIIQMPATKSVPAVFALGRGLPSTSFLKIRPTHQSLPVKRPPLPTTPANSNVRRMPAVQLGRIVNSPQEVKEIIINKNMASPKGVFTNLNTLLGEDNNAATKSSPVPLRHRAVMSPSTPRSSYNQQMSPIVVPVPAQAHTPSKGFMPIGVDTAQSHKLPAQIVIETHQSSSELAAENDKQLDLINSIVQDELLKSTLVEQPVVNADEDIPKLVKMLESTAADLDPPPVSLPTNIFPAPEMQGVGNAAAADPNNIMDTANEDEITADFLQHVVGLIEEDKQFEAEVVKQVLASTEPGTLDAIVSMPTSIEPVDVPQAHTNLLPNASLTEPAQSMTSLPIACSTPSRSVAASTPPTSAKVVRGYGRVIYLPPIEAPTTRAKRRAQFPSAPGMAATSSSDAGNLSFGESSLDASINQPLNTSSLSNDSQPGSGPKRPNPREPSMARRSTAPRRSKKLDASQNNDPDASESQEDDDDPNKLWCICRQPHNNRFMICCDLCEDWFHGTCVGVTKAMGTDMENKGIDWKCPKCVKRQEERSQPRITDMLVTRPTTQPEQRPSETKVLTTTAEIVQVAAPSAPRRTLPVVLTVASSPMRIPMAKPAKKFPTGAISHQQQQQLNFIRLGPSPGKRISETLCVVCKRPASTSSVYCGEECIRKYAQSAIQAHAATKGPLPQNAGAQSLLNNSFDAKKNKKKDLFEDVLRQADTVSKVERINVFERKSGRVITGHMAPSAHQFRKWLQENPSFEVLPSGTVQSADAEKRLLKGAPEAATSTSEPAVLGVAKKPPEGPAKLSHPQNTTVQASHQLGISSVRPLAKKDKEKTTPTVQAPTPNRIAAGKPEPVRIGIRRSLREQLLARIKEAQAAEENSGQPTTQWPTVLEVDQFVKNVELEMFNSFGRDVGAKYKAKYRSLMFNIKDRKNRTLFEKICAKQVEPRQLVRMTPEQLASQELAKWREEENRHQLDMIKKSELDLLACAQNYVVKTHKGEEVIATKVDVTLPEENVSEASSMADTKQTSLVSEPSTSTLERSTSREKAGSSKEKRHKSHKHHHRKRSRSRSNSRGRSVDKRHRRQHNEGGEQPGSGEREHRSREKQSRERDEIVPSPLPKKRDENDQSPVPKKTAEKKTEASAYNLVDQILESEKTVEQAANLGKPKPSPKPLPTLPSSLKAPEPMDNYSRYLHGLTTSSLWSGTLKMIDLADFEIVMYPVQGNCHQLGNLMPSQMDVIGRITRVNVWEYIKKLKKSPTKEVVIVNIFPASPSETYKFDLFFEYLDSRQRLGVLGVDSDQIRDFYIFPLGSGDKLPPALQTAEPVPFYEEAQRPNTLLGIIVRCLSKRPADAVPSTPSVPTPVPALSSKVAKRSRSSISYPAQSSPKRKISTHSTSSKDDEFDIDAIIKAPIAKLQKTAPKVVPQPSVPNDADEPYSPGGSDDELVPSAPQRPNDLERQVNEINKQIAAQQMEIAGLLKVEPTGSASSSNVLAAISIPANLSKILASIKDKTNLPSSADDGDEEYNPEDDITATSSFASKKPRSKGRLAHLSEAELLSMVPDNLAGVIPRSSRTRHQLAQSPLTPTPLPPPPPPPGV

Q: For “H3K4me0: H3K4me0 peptide (1–12 aa), unmethylated histone H3 tail, Synpeptide”, which “Binding by NMR chemical shift perturbations (CSPs), in words” value (PPS-PHD) is on record?
A: no CSPs in PPS-PHD were seen

Q: And the “Recognition of unmethylated histone H3 tail, in words” value (PPS-PHD; NMR)?
A: does not recognize unmethylated histone H3 tail at all

Q: “histone H3K4me1 peptide (residues 1-12 of H3) (from UniProt P68431 2-13)” was tested. Which Kd [1] did it give?
A: 230 µM

Q: Which results are given for “histone H3K4me3 peptide (residues 1-12 of H3) (from UniProt P68431 2-13)”?
A: Kd [2]: 1.9 µM; Kd [3]: 3.6 µM; Kd [4]: 17 µM

Q: Does ARTK(Me3)QTARKSTG (peptide, UniProt P68431 2-13, looked up) [histone H3K4me3 peptide (residues 1-12 of H3)] bind [5]?
A: binds
